The results in this text go back to publication PMC7935953 (2021).

The test has as its target His-LC3A (human, UniProt Q9H492 1-121). Kind of test: ITC. Background: Isothermal titration calorimetry measures the heat released or taken up as one component is titrated into another.

GSGTWTLVDEG [hEPG5-LIR1 peptide] came in with a dissociation constant Kd of 20.4 µM.

A word on the Kd: it is a measure of binding affinity in units of concentration. Lower therefore signals tighter binding.
